Reference: IntAct's records for PubMed 25609649

B1: F-box/WD repeat-containing protein 11 (Homo sapiens), Q9UKB1 (parent)
chain: MEPDSVIEDKTIELMCSVPRSLWLGCANLVESMCALSCLQSMPSVRCLQISNGTSSVIVSRKRPSEGNYQKEKDLCIKYFDQWSESDQVEFVEHLISRMCHYQHGHINSYLKPMLQRDFITALPEQGLDHIAENILSYLDARSLCAAELVCKEWQRVISEGMLWKKLIERMVRTDPLWKGLSERRGWDQYLFKNRPTDGPPNSFYRSLYPKIIQDIETIESNWRCGRHNLQRIQCRSENSKGVYCLQYDDEKIISGLRDNSIKIWDKTSLECLKVLTGHTGSVLCLQYDERVIVTGSSDSTVRVWDVNTGEVLNTLIHHNEAVLHLRFSNGLMVTCSKDRSIAVWDMASATDITLRRVLVGHRAAVNVVDFDDKYIVSASGDRTIKVWSTSTCEFVRTLNGHKRGIACLQYRDRLVVSGSSDNTIRLWDIECGACLRVLEGHEELVRCIRFDNKRIVSGAYDGKIKVWDLQAALDPRAPASTLCLRTLVEHSGRVFRLQFDEFQIISSSHDDTILIWDFLNVPPSAQNETRSPSRTYTYISR
partner: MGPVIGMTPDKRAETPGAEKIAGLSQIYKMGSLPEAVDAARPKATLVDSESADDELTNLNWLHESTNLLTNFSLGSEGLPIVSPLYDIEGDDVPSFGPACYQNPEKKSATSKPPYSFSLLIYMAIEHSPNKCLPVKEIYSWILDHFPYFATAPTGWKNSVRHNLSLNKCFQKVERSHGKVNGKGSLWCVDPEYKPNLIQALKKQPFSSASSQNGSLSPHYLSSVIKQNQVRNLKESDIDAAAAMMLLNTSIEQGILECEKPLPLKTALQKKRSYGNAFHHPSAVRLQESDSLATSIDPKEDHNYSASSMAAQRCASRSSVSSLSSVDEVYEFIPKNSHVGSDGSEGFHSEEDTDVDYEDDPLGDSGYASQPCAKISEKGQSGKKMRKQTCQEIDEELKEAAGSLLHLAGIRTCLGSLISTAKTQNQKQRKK

Variants of: B1
Conditions: with foxn2_human FOXN2, P32314

| Variant | effect of a mutation on the interaction |
| --- | --- |
| MEPDSVIEDKTIELMCSVPRSLWLGCANLVESMCALSCLQSMPSVRCLQISNGTSSVIVSRKRPSEGNYQKEKDLCIKYFDQWSESDQVEFVEHLISRMCHYQHGHINSYLKPMLQRDFITALPEQGLDHIAENILSYLDARSLCAAELVCKEWQRVISEGMLWKKLIERMVRTDPLWKGLSERRGWDQYLFKNRPTDGPPNSFYRSLYPKIIQDIETIESNWRCGRHNLQRIQCRSENSKGVYCLQYDDEKIISGLRDNSIKIWDKTSLECLKVLTGHTGSVLCLQYDERVIVTGSSDSTVRVWDVNTGEVLNTLIHHNEAVLHLRFSNGLMVTCSKDRSIAVWDMASATDITLRRVLVGHRAAVNVVDFDDKYIVSASGDRTIKVWSTSTCEFVRTLNGHKRGIACLQYRDRLVVSGSSDNTIRLWDIECGACLRVLEGHEELVRCIRFDNKRIVSGAYDGKIKVWDLQAAADPRAPASTLCLRTLVEHSGRVFRLQFDEFQIISSSHDDTILIWDFLNVPPSAQNETRSPSRTYTYISR [L474A] | disrupting interaction |
